According to article PMC11574045, “A cofactor-induced repressive type of transcription factor condensation can be induced by synthetic peptides to suppress tumorigenesis” (The EMBO Journal, 2024):

Test system: HEK293FT cells transfected with TF library
Experiment: Screening of TF condensates based on fluorescent puncta
Format: cell-based
Details: Figure 1B numerical data; TF library screen, one value per transcriptional factor
Procedure: TF plasmids were automatically added to black-walled 384-well plates at 80 ng per well to reach a final concentration of 1.6 μg/ml. Polyethylenimine (PEI, Sigma) was then added to the plasmid-loaded plates at 240 ng per well (4.8 μg/ml). Subsequently, HEK293FT cells were seeded into the plate at 2000 cells per well. After 60 h, cells were cultured in medium with or without glucose for 12 h, and then fixed with 4% paraformaldehyde (PFA) at room temperature for 30 min. After three washes with PBS, fixed cells were permeabilized with 0.05% Triton X-100 for 15 min. Thereafter, cells were blocked with 5% BSA for 1 h, and then incubated overnight with anti-Flag (Sigma F3165, 1:200) and anti-GAL4 (Abbkine ABP57232, 1:200) primary antibodies at 4 °C. The cells were then gently washed with PBS, followed by being incubated with Alexa Fluor Plus 488 goat anti-mouse IgG secondary antibody (Thermo A32723, 1:400) or Alexa Fluor Plus 488 goat anti-rabbit IgG secondary antibody (Thermo A32731, 1:400) for 1 h. The plates were kept at 4 °C in the dark before being analyzed using an Opera System (Perkin Elmer). Fifty random fields per well were scanned and analyzed using the Columbus Plus Image Data Storage and Analysis System (Perkin Elmer).

B1: AEBP2 (protein, UniProt Q6ZN18 2-517, looked up)
Zinc finger protein AEBP2: AAAITDMADLEELSRLSPLPPGSPGSAARGRAEPPEEEEEEEEEEEEAEAEAVAALLLNGGSGGGGGGGGGGVGGGEAETMSEPSPESASQAGEDEDEEEDDEEEEDESSSSGGGEEESSAESLVGSSGGSSSDETRSLSPGAASSSSGDGDGKEGLEEPKGPRGSQGGGGGGSSSSSVVSSGGDEGYGTGGGGSSATSGGRRGSLEMSSDGEPLSRMDSEDSISSTIMDVDSTISSGRSTPAMMNGQGSTTSSSKNIAYNCCWDQCQACFNSSPDLADHIRSIHVDGQRGGVFVCLWKGCKVYNTPSTSQSWLQRHMLTHSGDKPFKCVVGGCNASFASQGGLARHVPTHFSQQNSSKVSSQPKAKEESPSKAGMNKRRKLKNKRRRSLPRPHDFFDAQTLDAIRHRAICFNLSAHIESLGKGHSVVFHSTVIAKRKEDSGKIKLLLHWMPEDILPDVWVNESERHQLKTKVVHLSKLPKDTALLLDPNIYRTMPQKRLKRTLIRKVFNLYLSKQ
Q: Which “Z score of condensed fraction” value does the source give for B1 here?
A: 0.1647

B2: ELF3 (protein, UniProt P78545 1-371, looked up)
ETS-related transcription …: MAATCEISNIFSNYFSAMYSSEDSTLASVPPAATFGADDLVLTLSNPQMSLEGTEKASWLGEQPQFWSKTQVLDWISYQVEKNKYDASAIDFSRCDMDGATLCNCALEELRLVFGPLGDQLHAQLRDLTSSSSDELSWIIELLEKDGMAFQEALDPGPFDQGSPFAQELLDDGQQASPYHPGSCGAGAPSPGSSDVSTAGTGASRSSHSSDSGGSDVDLDPTDGKLFPSDGFRDCKKGDPKHGKRKRGRPRKLSKEYWDCLEGKKSKHAPRGTHLWEFIRDILIHPELNEGLMKWENRHEGVFKFLRSEAVAQLWGQKKKNSNMTYEKLSRAMRYYYKREILERVDGRRLVYKFGKNSSGWKEEEVLQSRN
Q: With B2 as the molecule, how does the “Z score of condensed fraction” value read?
A: -0.7241

B3: ELK1 (protein, UniProt P19419 1-428, looked up)
ETS domain-containing protein …: MDPSVTLWQFLLQLLREQGNGHIISWTSRDGGEFKLVDAEEVARLWGLRKNKTNMNYDKLSRALRYYYDKNIIRKVSGQKFVYKFVSYPEVAGCSTEDCPPQPEVSVTSTMPNVAPAAIHAAPGDTVSGKPGTPKGAGMAGPGGLARSSRNEYMRSGLYSTFTIQSLQPQPPPHPRPAVVLPSAAPAGAAAPPSGSRSTSPSPLEACLEAEEAGLPLQVILTPPEAPNLKSEELNVEPGLGRALPPEVKVEGPKEELEVAGERGFVPETTKAEPEVPPQEGVPARLPAVVMDTAGQAGGHAASSPEISQPQKGRKPRDLELPLSPSLLGGPGPERTPGSGSGSGLQAPGPALTPSLLPTHTLTPVLLTPSSLPPSIHFWSTLSPIAPRSPAKLSFQFPSSGSAQVHIPSISVDGLSTPVVLSPGPQKP
Q: For B3, which “Z score of condensed fraction” value is on record?
A: -0.5027

B4: EDF1 (protein, UniProt O60869 2-148, looked up)
Endothelial …: AESDWDTVTVLRKKGPTAAQAKSKQAILAAQRRGEDVETSKKWAAGQNKQHSITKNTAKLDRETEELHHDRVTLEVGKVIQQGRQSKGLTQKDLATKINEKPQVIADYESGRAIPNNQVLGKIERAIGLKLRGKDIGKPIEKGPRAK
Q: How did the “Z score of condensed fraction” value turn out when B4 was run?
A: -0.3636

B5: AES (protein, UniProt Q08117 1-197, looked up)
TLE family member 5: MMFPQSRHSGSSHLPQQLKFTTSDSCDRIKDEFQLLQAQYHSLKLECDKLASEKSEMQRHYVMYYEMSYGLNIEMHKQAEIVKRLNGICAQVLPYLSQEHQQQVLGAIERAKQVTAPELNSIIRQQLQAHQLSQLQALALPLTPLPVGLQPPSLPAVSAGTGLLSLSALGSQAHLSKEDKNGHDGDTHQEDDGEKSD
Q: B5 was tested. Which “Z score of condensed fraction” value did it give?
A: -0.7544

B6: ADNP (protein, UniProt Q9H2P0 1-1102, looked up)
Activity-dependent …: MFQLPVNNLGSLRKARKTVKKILSDIGLEYCKEHIEDFKQFEPNDFYLKNTTWEDVGLWDPSLTKNQDYRTKPFCCSACPFSSKFFSAYKSHFRNVHSEDFENRILLNCPYCTFNADKKTLETHIKIFHAPNASAPSSSLSTFKDKNKNDGLKPKQADSVEQAVYYCKKCTYRDPLYEIVRKHIYREHFQHVAAPYIAKAGEKSLNGAVPLGSNAREESSIHCKRCLFMPKSYEALVQHVIEDHERIGYQVTAMIGHTNVVVPRSKPLMLIAPKPQDKKSMGLPPRIGSLASGNVRSLPSQQMVNRLSIPKPNLNSTGVNMMSSVHLQQNNYGVKSVGQGYSVGQSMRLGLGGNAPVSIPQQSQSVKQLLPSGNGRSYGLGSEQRSQAPARYSLQSANASSLSSGQLKSPSLSQSQASRVLGQSSSKPAAAATGPPPGNTSSTQKWKICTICNELFPENVYSVHFEKEHKAEKVPAVANYIMKIHNFTSKCLYCNRYLPTDTLLNHMLIHGLSCPYCRSTFNDVEKMAAHMRMVHIDEEMGPKTDSTLSFDLTLQQGSHTNIHLLVTTYNLRDAPAESVAYHAQNNPPVPPKPQPKVQEKADIPVKSSPQAAVPYKKDVGKTLCPLCFSILKGPISDALAHHLRERHQVIQTVHPVEKKLTYKCIHCLGVYTSNMTASTITLHLVHCRGVGKTQNGQDKTNAPSRLNQSPSLAPVKRTYEQMEFPLLKKRKLDDDSDSPSFFEEKPEEPVVLALDPKGHEDDSYEARKSFLTKYFNKQPYPTRREIEKLAASLWLWKSDIASHFSNKRKKCVRDCEKYKPGVLLGFNMKELNKVKHEMDFDAEWLFENHDEKDSRVNASKTADKKLNLGKEDDSSSDSFENLEEESNESGSPFDPVFEVEPKISNDNPEEHVLKVIPEDASESEEKLDQKEDGSKYETIHLTEEPTKLMHNASDSEVDQDDVVEWKDGASPSESGPGSQQVSDFEDNTCEMKPGTWSDESSQSEDARSSKPAAKKKATMQGDREQLKWKNSSYGKVEGFWSKDQSQWKNASENDERLSNPQIEWQNSTIDSEDGEQFDNMTDGVAEPMHGSLAGVKLSSQQA
Q: B6 was tested. Which “Z score of condensed fraction” value did it give?
A: -0.6304

B7: ERCC3 (protein, UniProt P19447 1-782, looked up)
General transcription and DNA …: MGKRDRADRDKKKSRKRHYEDEEDDEEDAPGNDPQEAVPSAAGKQVDESGTKVDEYGAKDYRLQMPLKDDHTSRPLWVAPDGHIFLEAFSPVYKYAQDFLVAIAEPVCRPTHVHEYKLTAYSLYAAVSVGLQTSDITEYLRKLSKTGVPDGIMQFIKLCTVSYGKVKLVLKHNRYFVESCHPDVIQHLLQDPVIRECRLRNSEGEATELITETFTSKSAISKTAESSGGPSTSRVTDPQGKSDIPMDLFDFYEQMDKDEEEEEETQTVSFEVKQEMIEELQKRCIHLEYPLLAEYDFRNDSVNPDINIDLKPTAVLRPYQEKSLRKMFGNGRARSGVIVLPCGAGKSLVGVTAACTVRKRCLVLGNSAVSVEQWKAQFKMWSTIDDSQICRFTSDAKDKPIGCSVAISTYSMLGHTTKRSWEAERVMEWLKTQEWGLMILDEVHTIPAKMFRRVLTIVQAHCKLGLTATLVREDDKIVDLNFLIGPKLYEANWMELQNNGYIAKVQCAEVWCPMSPEFYREYVAIKTKKRILLYTMNPNKFRACQFLIKFHERRNDKIIVFADNVFALKEYAIRLNKPYIYGPTSQGERMQILQNFKHNPKINTIFISKVGDTSFDLPEANVLIQISSHGGSRRQEAQRLGRVLRAKKGMVAEEYNAFFYSLVSQDTQEMAYSTKRQRFLVDQGYSFKVITKLAGMEEEDLAFSTKEEQQQLLQKVLAATDLDAEEEVVAGEFGSRSSQASRRFGTMSSMSGADDTVYMEYHSSRSKAPSKHVHPLFKRFRK
Q: B7 was tested. Which “Z score of condensed fraction” value did it give?
A: -0.7686

B8: ERF (protein, UniProt P50548 1-548, looked up)
ETS domain-containing …: MKTPADTGFAFPDWAYKPESSPGSRQIQLWHFILELLRKEEYQGVIAWQGDYGEFVIKDPDEVARLWGVRKCKPQMNYDKLSRALRYYYNKRILHKTKGKRFTYKFNFNKLVLVNYPFIDVGLAGGAVPQSAPPVPSGGSHFRFPPSTPSEVLSPTEDPRSPPACSSSSSSLFSAVVARRLGRGSVSDCSDGTSELEEPLGEDPRARPPGPPDLGAFRGPPLARLPHDPGVFRVYPRPRGGPEPLSPFPVSPLAGPGSLLPPQLSPALPMTPTHLAYTPSPTLSPMYPSGGGGPSGSGGGSHFSFSPEDMKRYLQAHTQSVYNYHLSPRAFLHYPGLVVPQPQRPDKCPLPPMAPETPPVPSSASSSSSSSSSPFKFKLQPPPLGRRQRAAGEKAVAGADKSGGSAGGLAEGAGALAPPPPPPQIKVEPISEGESEEVEVTDISDEDEEDGEVFKTPRAPPAPPKPEPGEAPGASQCMPLKLRFKRRWSEDCRLEGGGGPAGGFEDEGEDKKVRGEGPGEAGGPLTPRRVSSDLQHATAQLSLEHRDS
Q: With B8 as the molecule, how does the “Z score of condensed fraction” value read?
A: -0.2253

B9: EID1 (protein, UniProt Q9Y6B2 1-187, looked up)
EP300-interacting inhibitor …: MSEMAELSELYEESSDLQMDVMPGEGDLPQMEVGSGSRELSLRPSRSGAQQLEEEGPMEEEEAQPMAAPEGKRSLANGPNAGEQPGQVAGADFESEDEGEEFDDWEDDYDYPEEEQLSGAGYRVSAALEEADKMFLRTREPALDGGFQMHYEKTPFDQLAFIEELFSLMVVNRLTEELGCDEIIDRE
Q: B9 was tested. Which “Z score of condensed fraction” value did it give?
A: 1.007

B10: ENY2 (protein, UniProt Q9NPA8 1-101, looked up)
Transcription and mRNA export …: MVVSKMNKDAQMRAAINQKLIETGERERLKELLRAKLIECGWKDQLKAHCKEVIKEKGLEHVTVDDLVAEITPKGRALVPDSVKKELLQRIRTFLAQHASL
Q: For B10, which “Z score of condensed fraction” value is on record?
A: -0.6608

B11: EN2 (protein, UniProt P19622 1-333, looked up)
Homeobox protein engrailed-2: MEENDPKPGEAAAAVEGQRQPESSPGGGSGGGGGSSPGEADTGRRRALMLPAVLQAPGNHQHPHRITNFFIDNILRPEFGRRKDAGTCCAGAGGGRGGGAGGEGGASGAEGGGGAGGSEQLLGSGSREPRQNPPCAPGAGGPLPAAGSDSPGDGEGGSKTLSLHGGAKKGGDPGGPLDGSLKARGLGGGDLSVSSDSDSSQAGANLGAQPMLWPAWVYCTRYSDRPSSGPRSRKPKKKNPNKEDKRPRTAFTAEQLQRLKAEFQTNRYLTEQRRQSLAQELSLNESQIKIWFQNKRAKIKKATGNKNTLAVHLMAQGLYNHSTTAKEGKSDSE
Q: With B11 as the molecule, how does the “Z score of condensed fraction” value read?
A: 2.005

B12: EMX1 (protein, UniProt Q04741 1-290, looked up)
Homeobox protein EMX1: MCLAGCTPRKAAAPGRGALPRARLPRTAPAAATMFQPAAKRGFTIESLVAKDGGTGGGTGGGGAGSHLLAAAASEEPLRPTALNYPHPSAAEAAFVSGFPAAAAAGAGRSLYGGPELVFPEAMNHPALTVHPAHQLGASPLQPPHSFFGAQHRDPLHFYPWVLRNRFFGHRFQASDVPQDGLLLHGPFARKPKRIRTAFSPSQLLRLERAFEKNHYVVGAERKQLAGSLSLSETQVKVWFQNRRTKYKRQKLEEEGPESEQKKKGSHHINRWRIATKQANGEDIDVTSND
Q: B12 was tested. Which “Z score of condensed fraction” value did it give?
A: -0.9497
